From PMC1074310

Target: T1, tumor necrosis factor receptor-associated factor 2 (TRAF2) fused to CFP, YFP or mRFP, Q12933
T1 chain: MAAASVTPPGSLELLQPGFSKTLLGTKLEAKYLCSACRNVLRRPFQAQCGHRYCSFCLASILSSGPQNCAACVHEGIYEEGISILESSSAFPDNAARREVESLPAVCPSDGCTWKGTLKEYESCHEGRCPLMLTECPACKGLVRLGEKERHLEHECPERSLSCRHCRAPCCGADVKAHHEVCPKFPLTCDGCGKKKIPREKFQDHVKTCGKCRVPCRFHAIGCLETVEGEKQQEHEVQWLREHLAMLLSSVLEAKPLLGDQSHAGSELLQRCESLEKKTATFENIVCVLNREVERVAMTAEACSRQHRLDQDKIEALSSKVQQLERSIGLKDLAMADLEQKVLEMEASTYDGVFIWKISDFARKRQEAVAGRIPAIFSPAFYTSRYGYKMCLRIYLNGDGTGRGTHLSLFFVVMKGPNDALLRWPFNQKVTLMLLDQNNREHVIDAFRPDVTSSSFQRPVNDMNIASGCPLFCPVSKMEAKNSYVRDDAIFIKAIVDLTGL
Assay: FRET or BRET
Conditions: remark: other sources report otherwise

B1: tumor necrosis factor receptor-associated factor 2 (TRAF2) fused to CFP, YFP or mRFP, Q12933 1-501 (natural protein)
chain: T1 chain
  FRET1 (CFP→YFP) MFI, cells with CFP-TRAF2, YFP-TRAF2 and mRFP: 10.9 MFI
  FRET3 (CFP→mRFP) MFI, cells with CFP-TRAF2, YFP and mRFP-TRAF2: 32.7 MFI
  stoichiometry N: 3
  two-step FRET (CFP→YFP→mRFP) MFI, cells with CFP-TRAF2, YFP-TRAF2 and mRFP-TRAF2: 58.6 MFI
